In US20230034906A1 (TRINOMAB BIOTECH, published 2023):

Molecular target: T1, gB_Towne protein with N302 mutated into glutamine (human cytomegalovirus, strain Towne, UniProt F5HB53 25-700)
T1 chain: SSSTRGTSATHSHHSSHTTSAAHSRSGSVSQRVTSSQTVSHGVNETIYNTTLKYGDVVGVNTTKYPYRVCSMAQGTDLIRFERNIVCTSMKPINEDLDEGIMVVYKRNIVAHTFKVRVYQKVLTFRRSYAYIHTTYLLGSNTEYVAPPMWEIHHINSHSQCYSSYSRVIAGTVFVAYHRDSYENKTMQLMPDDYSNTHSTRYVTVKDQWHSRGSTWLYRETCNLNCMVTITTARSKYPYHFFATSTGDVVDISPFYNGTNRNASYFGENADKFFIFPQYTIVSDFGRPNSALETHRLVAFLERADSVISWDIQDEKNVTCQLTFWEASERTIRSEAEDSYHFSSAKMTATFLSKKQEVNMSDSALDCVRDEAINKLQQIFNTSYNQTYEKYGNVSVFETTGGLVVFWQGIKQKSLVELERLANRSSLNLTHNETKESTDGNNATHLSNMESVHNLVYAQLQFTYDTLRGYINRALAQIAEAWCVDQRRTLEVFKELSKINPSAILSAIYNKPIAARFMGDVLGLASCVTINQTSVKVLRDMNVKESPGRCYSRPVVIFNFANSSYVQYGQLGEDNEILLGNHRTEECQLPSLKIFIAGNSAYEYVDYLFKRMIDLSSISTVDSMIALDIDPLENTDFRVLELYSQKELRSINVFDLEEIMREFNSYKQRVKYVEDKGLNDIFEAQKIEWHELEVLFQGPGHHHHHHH
Experiment: indirect ELISA, antibody titrated on gB glycoprotein mutant

B1: TRN1019 (antibody, V domains shown)
VH: QVQLVQSGAEVKKPGESLKISCKGSGYTFTNYWIGWVRQMPGAGLEWMAIIFPRDSYSAYSPSFQGRVTISVDKSISTAYLHWSSLEASDTAVYYCAIYNDLRSGNSWGQGTPLIVSS
VL: DIQMTQSPSSLSASVGDRVTITCRASQSITKYLNWYQQKPGRAPKLLIHTTSTLQSGVPSRFSGSGSGTDFTLTISSLQLEDFGTYYCQQSFSTLWTFGQGTKLDIKR
notes: Fully human antibody; kappa light chain
binding result: binds
